Experimental data as given in PMC8744954.

What was measured:
[1] = biological target: Jun (Homo sapiens) (UniProt P05412); conditions: cited from earlier work
[2] = biological target: p53 proteins tested (wild type p53 and 46 common clinical mutants); assay: SPR; NAPPA-SPRi: p53 proteins with GST-E-coil translated in situ and captured by K-coil peptide on a gold slide; purified full-length MDM2 20 μg/mL injected at 3 μL/s; running buffer 1x PBS, 1% Tween 20; 1:1 fit with Scrubber 2.0; apparent constants

UniProt P05412, sequence (P05412 whole entry): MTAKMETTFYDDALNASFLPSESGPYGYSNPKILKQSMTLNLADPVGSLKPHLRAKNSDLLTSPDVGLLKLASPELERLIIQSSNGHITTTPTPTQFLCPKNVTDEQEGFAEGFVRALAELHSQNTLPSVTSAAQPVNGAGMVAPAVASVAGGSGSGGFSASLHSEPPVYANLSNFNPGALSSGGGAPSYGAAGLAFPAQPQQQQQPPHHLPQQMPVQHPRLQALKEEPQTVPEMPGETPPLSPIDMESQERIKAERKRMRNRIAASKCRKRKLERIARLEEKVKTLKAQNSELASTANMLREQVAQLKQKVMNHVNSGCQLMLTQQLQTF

## Fos (from UniProt P01100)
[1]
  Kd: 1 nM

## MDM2, full-length purified recombinant (from UniProt Q00987 1-491) (natural protein)
[2]
  Kd: 2.85 to 1350 nM
  median KD: 105 nM
